This assay concerns the target Plasma fibronectin, affinity purified from human plasma (human) (UniProt P02751). The assay is described as follows: cell-based or functional assay.

Chain of Plasma fibronectin, affinity purified from human plasma (human) (P02751 32-2477): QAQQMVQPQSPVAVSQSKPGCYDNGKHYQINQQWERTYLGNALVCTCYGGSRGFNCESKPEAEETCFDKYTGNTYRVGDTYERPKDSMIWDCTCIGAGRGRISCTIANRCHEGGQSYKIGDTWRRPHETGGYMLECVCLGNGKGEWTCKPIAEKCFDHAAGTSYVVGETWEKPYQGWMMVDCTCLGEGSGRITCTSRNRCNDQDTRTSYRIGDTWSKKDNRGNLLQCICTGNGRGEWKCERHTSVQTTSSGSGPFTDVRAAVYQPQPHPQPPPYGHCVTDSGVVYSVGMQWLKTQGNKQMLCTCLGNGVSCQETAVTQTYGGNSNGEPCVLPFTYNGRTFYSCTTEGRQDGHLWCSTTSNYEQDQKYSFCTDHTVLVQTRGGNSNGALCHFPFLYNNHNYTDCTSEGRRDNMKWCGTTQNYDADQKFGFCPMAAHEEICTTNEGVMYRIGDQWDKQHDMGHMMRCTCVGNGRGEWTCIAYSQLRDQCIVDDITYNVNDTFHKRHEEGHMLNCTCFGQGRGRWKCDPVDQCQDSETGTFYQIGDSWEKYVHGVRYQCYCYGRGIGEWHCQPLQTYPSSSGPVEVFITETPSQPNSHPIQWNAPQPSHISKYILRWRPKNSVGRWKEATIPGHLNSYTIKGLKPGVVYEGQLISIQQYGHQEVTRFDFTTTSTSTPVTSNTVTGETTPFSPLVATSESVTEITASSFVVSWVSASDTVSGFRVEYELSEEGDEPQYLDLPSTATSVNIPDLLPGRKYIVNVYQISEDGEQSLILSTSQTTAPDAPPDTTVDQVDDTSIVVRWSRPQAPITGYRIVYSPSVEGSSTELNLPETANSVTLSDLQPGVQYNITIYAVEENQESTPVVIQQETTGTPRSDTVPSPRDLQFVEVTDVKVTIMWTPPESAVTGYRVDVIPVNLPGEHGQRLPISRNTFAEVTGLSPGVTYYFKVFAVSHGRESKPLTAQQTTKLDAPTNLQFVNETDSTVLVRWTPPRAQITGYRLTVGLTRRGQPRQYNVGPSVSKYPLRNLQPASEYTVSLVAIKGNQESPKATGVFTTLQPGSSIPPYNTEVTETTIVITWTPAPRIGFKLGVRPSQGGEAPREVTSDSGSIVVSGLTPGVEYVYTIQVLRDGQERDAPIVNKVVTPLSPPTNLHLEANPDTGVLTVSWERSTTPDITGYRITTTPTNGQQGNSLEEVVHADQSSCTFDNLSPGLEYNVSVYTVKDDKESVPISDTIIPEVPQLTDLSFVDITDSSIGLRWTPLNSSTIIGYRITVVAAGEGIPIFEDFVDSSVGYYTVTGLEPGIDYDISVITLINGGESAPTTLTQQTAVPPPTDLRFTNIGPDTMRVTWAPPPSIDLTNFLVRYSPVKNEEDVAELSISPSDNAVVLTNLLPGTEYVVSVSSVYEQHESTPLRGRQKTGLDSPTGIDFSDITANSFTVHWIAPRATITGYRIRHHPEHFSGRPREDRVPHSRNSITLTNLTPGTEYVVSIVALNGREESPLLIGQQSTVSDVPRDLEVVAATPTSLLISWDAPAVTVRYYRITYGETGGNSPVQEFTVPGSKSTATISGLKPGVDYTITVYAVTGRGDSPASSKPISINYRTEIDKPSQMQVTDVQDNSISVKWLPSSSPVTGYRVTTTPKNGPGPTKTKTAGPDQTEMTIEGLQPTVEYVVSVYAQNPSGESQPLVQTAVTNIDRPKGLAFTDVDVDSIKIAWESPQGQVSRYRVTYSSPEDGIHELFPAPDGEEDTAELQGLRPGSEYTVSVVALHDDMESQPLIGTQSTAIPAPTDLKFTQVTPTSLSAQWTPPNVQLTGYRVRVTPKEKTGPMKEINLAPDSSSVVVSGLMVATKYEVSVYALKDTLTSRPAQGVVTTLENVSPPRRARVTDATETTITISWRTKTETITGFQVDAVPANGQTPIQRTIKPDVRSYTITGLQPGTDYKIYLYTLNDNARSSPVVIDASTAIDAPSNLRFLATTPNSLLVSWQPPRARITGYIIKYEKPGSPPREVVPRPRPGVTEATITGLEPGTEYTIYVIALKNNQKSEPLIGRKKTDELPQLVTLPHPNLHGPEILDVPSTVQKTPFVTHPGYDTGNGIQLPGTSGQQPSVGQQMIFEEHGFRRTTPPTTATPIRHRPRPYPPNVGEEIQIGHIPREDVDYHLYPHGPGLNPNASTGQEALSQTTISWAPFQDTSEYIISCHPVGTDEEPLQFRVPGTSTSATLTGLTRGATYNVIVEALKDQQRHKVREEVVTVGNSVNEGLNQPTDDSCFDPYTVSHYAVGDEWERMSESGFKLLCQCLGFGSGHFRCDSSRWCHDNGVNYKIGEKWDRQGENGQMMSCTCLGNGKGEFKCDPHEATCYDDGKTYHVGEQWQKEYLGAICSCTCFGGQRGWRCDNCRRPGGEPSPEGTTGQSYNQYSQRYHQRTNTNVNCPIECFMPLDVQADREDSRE
Chain of Recombinant Anastellin, P02751 631-703 (P02751 other isoform, or with tags, fused parts or gaps limits assumed): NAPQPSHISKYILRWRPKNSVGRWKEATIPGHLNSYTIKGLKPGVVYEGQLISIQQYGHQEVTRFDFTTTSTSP

Recombinant Anastellin, P02751 631-703: the fibronectin aggregation, increase in absorbance at 600 nm is greater than 20 µM.

The values above are taken from patent US20090170751A1.
